Source: paper PMC11107202, “Hypothiocyanous acid reductase is critical for host colonization and infection by Streptococcus pneumoniae” (The Journal of Biological Chemistry, 2024)

Assays:
Har = molecular target: T1, Har (Streptococcus pneumoniae, UniProt A0A0H2ZMK9); experiment: X-ray crystal structure, […] Å; assay type: binding; settings: tag-cleaved Har; 2.4 M sodium malonate pH 7.0, 20 °C
T1 construct: gene SPD_1415; full length, 438 residues; E. coli BL21(DE3), pET28a; N-terminal 6-His tag kept for kinetics, cut by HRV-3C for crystals (4-residue scar); motif CXXXXC (C43, C48), K13, K16, H425, E430

N#CSO = experiment: purified protein; settings: 200 μM NADH, 10 nM 6-His-tagged Har, 100 mM sodium phosphate pH 7, 25 °C, HOSCN 1-50 μM
[1] = molecular target: hypothiocyanous acid reductase (Har) (Streptococcus pneumoniae); experiment: AUC; sedimentation velocity; Har at 2 uM and 20 uM in 20 mM Tris-HCl pH 8.0, 150 mM NaCl; 50,000 rpm, 20 °C; 2DSA and genetic algorithm analysis in UltraScan 4.0

**Q.** With `Cc1cc2nc3c(=O)[nH]c(=O)nc-3n(C[C@H](O)[C@H](O)[C@H](O)COP(=O)(O)OP(=O)(O)OC[C@H]3O[C@@H](n4cnc5c(N)ncnc54)[C@H](O)[C@@H]3O)c2cc1C` [FAD] as the compound, how does the “X-ray crystal structure, 1.50 Å” value (Har) read?
**A.** first crystal structure of full-length Har

**Q.** Which Km (N#CSO) does the source give for Har (Streptococcus pneumoniae D39) here?
**A.** 3.8 ± 0.3 µM

**Q.** What about the kcat (N#CSO) of the same compound?
**A.** 440 ± 10 s⁻¹

**Q.** With “hypothiocyanous acid reductase (Har) (enzyme)” as the compound, how does the stoichiometry N [1] read?
**A.** 2
